The results in this text go back to a protein production outcome set (Wang et al. 2014).
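Also: failed if final PepcDB status was selected cloned or expressed and not failed if soluble or beyond.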

This series is described as follows: label from the status in PepcDB records.
In the case of “MNYKLTLHPGSNPVEEFTSIPHGVTSLDLSLNNLYSISTVELIQAFANTPASVTSLNLSGNSLGFKNSDELVQILAAIPANVTSLNLSGNFLSYKSSDELVKTLAAIPFTITVLDLGWNDFSSKSSSEFKQAFSNLPASITSLNLRGNDLGIKSSDELIQILAAIPANVNSLNLRGNNLASKNCAELAKFLASIPASVTSLDLSANLLGLKSYAELAYIFSSIPNHVVSLNLCLNCLHGPSLENLKLLKDSLKHLQTVYLDYDIVKNMSKEQCKALGAAFPNIQKIILVDKNGKEIHPSHSIPISNLIRELSGKADVPSLLNQCLIFAQKHQTNIEDLNIPDELRESIQTCKPLLEHHHHHH”, the protein production result is given as “not failed”.
Take “MGHSGREERIKDIFKELTSKELTPGLLLTLQKLAQKPNTNLEQFIASCKALTKLSSNNPIIFNELLELLKNKSEEDSTGPKKIAPSINKRKKFKIQLDLDDNEDELDSPVQKKPAPTRTLFKRIDKLKAKQLRQYSPTVKDPSPNSEQQTQNGHAETKDYEPTRSEVVEEDREWYDNDDDYGNLVPEPLSELPEEAKLLPVIRNIDNDDALRNTVQLYPIPLKQRMEWIPPFLSKFALENKVPTSIIIGSISETSSQVSALSMVNPFRNPDSEFSANAKRGSKLVALRRINMEHIQQSRDNTTVLNTAMGEVLGLENNNKAKDKSNQKICDDTALFTPSKDDIKHTKEQLPVFRCRSQLLSLIRENQVVVIIGETGSGKTTQLAQYLYEEGYANDRGKSIVVTQPRRVAAISVAKRVAMEMQVPLGKEVGYSIRFEDVTDSECTKLKFVTDGILLRETLLDDTLDKYSCVIIDEAHERSLNTDILLGFFKILLARRRDLKLIITSATMNAKKFSAFFGNAPQFTIPGRTFPVQTIYTSNPVQDYVEAAVSQAVKIHLANDCSSGDILIFMTGQEDIETTFDTLQEKFLQVYSKKFGTANFEEINDIEILPIYSALPADLQFKIFQDLHGTKRKIIIATNIAETSLTIKGIRYVIDCGYSKLKVYNPKIGLDSLVITPISKANADQRSGRAGRTAPGTAYRLYTEDTFKEDMYLQTIPEIQRTNLSNTLLLLKSLDVTDELSKFPFIDKPPLQTFLSSLYELWFIGAIDTSGQLTPLGLQMAKFPLQPSLSKILLIAVRNGCSDEMLTIVSMLSVPQVFYRPKERQKEADIARNKFFIAKSDHLTLLNVFEQWRANNFSSHWCNKHFVQYKSLVRARDIRDQLLTILKSQKIPVISSGKDWDIIKKCICSGFAHQAAKITGLRNYVHLKTGVSVQLHPTSALHGLGDLPPYVVYHELLMTSKEYICCVTSVDPFWLMEYGGLLYDIKRIKNDQEATTTGLFGEHYEHTLDKVEDDIDINIRRCKDMRDSVIQELKMTDNSNKEDKKQKTKKQNILNGKENSMKPFKRRKPFF”: the protein production entry was “failed”.
On to “GHMAKAYKQAGVDIEAGYQAVALMKEHVQKTMRPEVLGGIGGFGGLFDLSALGYRQPVLISGTDGVGTKLKLAFLLDRHDTIGIDCVAMCVNDIIVQGAEPLFFLDYIACGKAVPEKIAAIVKGVADGCVEAGCALIGGETAEMPGMYDEDEYDLAGFAVGVAEKERLITGETIQAGDALVGLPSSGLHSNGYSLVRRIVFEQAKLSLDEIYEPLDVPLGEELLKPTRIYAKLLRSVRERFTIKGMAHITGGGLIENIPRMLPPGIGARIQLGSWPILPIFDFLREKGSLEEEEMFSVFNMGIGLVLAVSPETAAPLVEWLSERGEPAYIIGEVAKGAGVSFAGGGRA”, for which the protein production result is “not failed”.
Turning to “MSLTVQDLHFKNKVNFIGGQYVPSNESDTIDILSPSTGKVIGEIPAGCKADAENALEVAQAAQKAWAKLTARTRQNMLRTFANKIRENKHILAPMLVAEQGKLLSVAEMEVDVTATFIDYGCDNALTIEGDILPSDNQDEKIYIHKVPRGVVVGITAWNFPLALAGRKIGPALITGNTMVLKPTQETPLATTELGRIAKEAGLPDGVLNVINGTGSVVGQTLCESPITKMITMTGSTVAGKQIYKTSAEYMTPVMLELGGKAPMVVMDDADLDKAAEDALWGRFANCGQVCTCVERLYVHASVYDEFMAKFLPLVKGLKVGDPMDADSQMGPKCNQREIDNIDHIVHEAIKQGATVATGGKTATVEGFEGGCWYEPTVLVDVKQDNIVVHEETFGPILPIVKVSSMEQAIEFCNDSIYGLSAYVHTQSFANINQAISDLEVGEVYINRGMGEQHQGFHNGWKQSGFGGEDGKFGLEQYLEKKTVYINEAEGHHHHHH”, the protein production result is listed as “not failed”.
The entry for “MQLEHILRSYARYAPVYDHTFGWLLNFRGRSLAAHLTNRRPGRILEVGVGTGISLPFYRKEHQVHGIDISPHMLERARRRVHSKNLDHVVRLEIMDAREMAFPDDYFDAVVAAYVMSVVPEPQRVLREIERVCKAGGDVIIVNHFAADKKGTRRHFEALLSPLSHKLGWRPDMPIDEILAHTSLHEVRRQTLPPMGLFTLLHLKKASPDFADPARP” is “failed”; for “MNIMEIEKTNRMNALFEFYAALLTDKQMNYIELYYADDYSLAEIADEFGVSRQAVYDNIKRTEKILETYEMKLHMYSDYVVRSEIFDDMIAHYPHDEYLQEKISILTSIDNRE” it is “not failed”; for “MNTFGIFLTISAYTFFSWAYSKKKTPILNPVLLSILLIALILKVGNISYEKYMESARFLSFLLGPAVVSLAIPLYKQINIVKEYKKEIATGIITGGTTAILSAVYILKAFNSPEILQRTIAPKSVTTAIAMGVSEKIGGIPELTAVLVILTGILGNALAPELLDFFKIKDRVARGLATGVSSHGLGTARIILEDELSGAVSGLAMALNGVYTAFLLPLIIELIV” it is “failed”.
With “MTQPSGLKNLLRAAAGALPVVPRTDQLPNRTVTVEELPIDPANVAAYAAVTGLRYGNQVPLTYPFALTFPSVMSLVTGFDFPFAAMGAIHTENHITQYRPIAVTDAVGVRVRAENLREHRRGLLVDLVTNVSVGNDVAWHQVTTFLHQQRTSLSGEPKPPPQKKPKLPPPAAVLRITPAKIRRYAAVGGDHNPIHTNPIAAKLFGFPTVIAHGMFTAAAVLANIEARFPDAVRYSVRFAKPVLLPATAGLYVAEGDGGWDLTLRNMAKGYPHLTATVRGL”, the protein production result was “failed”.
For “MEEAPQVGDRLHCYWNLVSKDREKVFEAVVTDVETVSFRELRENDELAREDGFRDAKQLEEEFQRMYQGELTDDTEFQVIRFRKLPVDEWEGKRIDEKAMITRRADILFDSGKFSKSELCYTAALRIDPNDVYILNRLGDNLTRLGRFDEALENYRRAIMIEPENPYIWNNMAITLLNAGRVDEALEASERALKIKHDPDLLYWRGVMLEVAGKPLEALESYERSLEIDPRNAEVWTARGNLLSDLGRMEEAIESYNSALELALEDEQDPNVWNRKGNALLELERFNEALECYRRAIEMEPENDVYWTNMGVALLELERFDEALEAFNRALMINPKNEDAGILREECLENL”, the protein production entry was “failed”.
In the case of “MTLKLIGAGFGRTGTWSTFAALNRLGLPCYHMQEVIMNKANKGHLDFWRKVANSPPGSQHDWNRVFANYTATVDNPGCCVWKELLAAYPDAKVLLTLHPRGAEAWYESTIDTIYFTENVWQFKILEWLTPFGWKFGDMSRKLIWGRTLDGVMNDRAKAVARYNTYVEQVKAAVPPHKLLVYKVTEGWAPLCDFLGVALPNEPFPNLNDRETIKKIIRDIIKGSYIMLGLAIAAIVAVVAALWWWLG” it was “failed”; in that of “MRKLTALFVASTLALGAANLAHAADTTTAAPADAKPMMHHKGKFGPHQDMMFKDLNLTDAQKQQIREIMKGQRDQMKRPPLEERRAMHDIIASDTFDKVKAEAQIAKMEEQRKANMLAHMETQNKIYNILTPEQKKQFNANFEKRLTERPAAKGKMPATAELEHHHHHH”, “not failed”; in that of “SSEANSNSEFQTFIEQENQKAAIQAAISKLTETCWDKCVGKPGSKLDRAESECIANCAERFLDSSSFIMQRLMKKQ”, “not failed”.
Take “MNTEAEQQLLHHARNGNAEEVRKLLEAMARAEVVADIDCKGRSKSNLGWTPLHLACYFGHKQVVQDLLKAGAKVNMLNDMGDTPLHRAAFTGRKELVMLLLEYNADTTVVNGSGQTAKEATHDKEIRQMLEAVERTQQRKLEELLLGAAREGRTAEVSALLSRPNPPDVNCSDQLGNTPLHCAAYRAHKQCVLKLLRSGADPSLKNKNDQKPLDLAHGTEMKHILVGNKVVHKALKRFEGPLWKSSRFFGWKLFWVVLEHGVLSWYRKQPDAVHNSYRQGCKHLTQAVCTVKPTDGCLFSVRCFDDTVHGFRVPKNSLQQSREKWLEAIEEHSAYSTHYCSQDQVTDDEEEDVASAMDLKESLARAQTCQQRLDREIYNFLKMIKECDVAKDMLPSFLQKADVLSEASRETCVALSDCLNLFTKQEGVRNFKLEQEQEKNKILSEALETLATEHHELERSLVEGSPPVSILSEDEFYDALSGSESEGSLTCLEAVTARAFEENEVPANSGKHRMSEGKDCGGGDALSNGIKKHRTSLPSPMFSRNDFSIWSILRKCIGMELSKITMPVIFNEPLSFLQRLTEYMEHTYLIHKASSFSDPVERMQCVAAFAVSAVASQWERTGKPFNPLLGETYELVRDDLGFRLISEQVSHHPPISAFHAEGLNNDFIFHGSIYPKLKFWGKSVEAEPKGTITLELLEHNEAYTWTNPTCCVHNIIVGKLWIEQYGNVEIINHKTGDKCVLNFKPCGLFGKELHKVEGYIQDKSKKKLCALYGKWTECLYSVDPATFDAYKKNDKKNTEEKKTSKQASTSEESDEMPVPDSESVFVIPGSALLWRIAPRPPNSAQMYNFTSFAMVLNEVDKEMETVIPKTDCRLRPDIRAMENGEIDQASEEKKRLEEKQRAARKNRSKSEEDWKTRWFHQGPNPYSGAQDWIYSGSYWDRNYFNLPDIY”: the protein production entry was “failed”.
The entry for “MLKFNKVFMYITASALSVSLWTCTSFAQQNKTGVTTASMLNMRENPSTSTKIIDQIPNGTKVDIIETSNGWYKISYNGKTGWVYGSYVKVTETPKLTVTDETILATLNKGSTGNSSTNSSTNNSAVNNSSSQVVDETIQKPAQNAASGENTENTVVKTGIVKASALNVRQGPGTSYSIINQLSNGAKVNIIKEESGWYQIKLANGSTGWVSGTYVNVNTTIASRGGLSENSAPAASNNSDVSGVRQQVVEYAKKFLGVKYVYGGNSPSQGFDCSGFVKYVFSNFGINLERVAASQAKQGTWVSKDQLLPGDLVFFDTDGGHNYINHSGIYIGDGKFIHASSGSGKKSVVISDLTSGFYANTYMTARRVLN” is “failed”; for “MNVLRRFHAWRNQAPLWWWVGLRMSALAVVTMMVIAFGMWCYFNLRYSLILSNVPAEPRAEISQLIEQPRANQARLWELFQRYYDIENFLPGLANPDWWMLGAMMTISVPVILFCGLLASRPLSRQFSQVAFAAHRVSDGDFGARAQVVRGAPDELTALADDFNTMSGRLQQYERELRDSSAMLAHELRTPLNAAMGRVQGMLDDVFPREPEQLRLVHRQLEQINRLIGDLHLVSLARAGQLVLEPESVELRELVAERIEWAGPALREAQMTIHYPTHPALRLHADRHRLGQVLSILIDNALRYAAAGKLLEIEVRRDGTGVQLTVGDRGPGVAPAQLPHLLDRFWRADSSRARHSGGSGLGLAIASAICQAHDGQLVVSNRPGGGLLASVQLPLGR” it is “failed”; for “MEQIILDIIEFLKQFSYFGVVLALTFEFIPAEVVLPMVGYWVYEGDMNFWLAVLAGTLGGTTGPLTLYALGYYGGRPLLIKYGKYFFIKEEQIQKADDFFEKYGPVVAFVGRFVPGVRTLISVPCGMAKMNIWKFSIYTFVAMFPLTTLYVYFGMKLGPHWEKAADVVGQYMLPILGGVILIVASIFVYKYMKKRNKTESI” it is “not failed”.
The entry for “MLKDNLKEWFGFDEFKEGQEEIIDSVLHGRHTLGILPTGSGKSLCYQLPTYILEKPTLIISPLISLMDDQVMQMKLKGETHVACVHSGMDEVEKRDNIKRLSKSRFIYLSPEYILQPHNFKYIAHINFGLIVLDEAHCLSEWGYDFRPHYALVGKIIHHFNSATVLALTATAPPQLETDLSHILSLKLNVVQKSMNRENISLQHYNFNDDEGKIEWLLPFLSNSGPTIIYVSSKKRCLELAQMIYDSGYLTGIYHGDLSYQERQTVQQQFFNNDIPVIVATSAFGMGINKKDIRTVIHFHLSSSPSNYLQEIGRAGRDGKQSQAISLFQPDDSFILETLLFTDIITDDDITMFETGNHLPDEKEKILSTLNIQFTFSQLKDIFHQSYQRKRLGYMRMMGYTNLDQCRRKYLLEFFGEHPQSPKQCCDQDSRLEPIQILNRKKVKRKLSFNEKLYNLFET” is “failed”.
